Source: US20240425603A1 (Janssen / Centocor, published 2024)

Legend:
[1] = target: T1, human VEGFR2, over-expressed on HEK293 cells (human, UniProt P35968 20-1356); assay: flow cytometry, 10 nM antibody, HEK cells over-expressing human VEGFR2
T1 construct: whole, on cells; also called huVEGFR2; hVEGFR2

[2] = target: T2, human VEGFR1, full length, over-expressed on cells (human, UniProt P17948 27-1338); assay: flow cytometry, CHOK1 cells over-expressing human VEGFR1; competitor biotinylated VEGF A (500 pM)
T2 construct: on CHO-K1 or HEK cells; also called hVEGFR1; CHOK1/ human VEGFR1
Protocol: Ligand blocking on cells was determined as follows: Cell Trace Violet CSFE (ThermoFisher Scientific) stained cells were plated at 15,000 cells per well (30 μL/well; CHO parental or CHO cells engineered to over-express human VEGFR1) in FACS staining buffer. An equivalent volume of serially diluted test antibody was applied to the cells and incubated for one hour at 4° C. Cells were washed twice with 200 μL/well of stain buffer followed by the addition of 100 μL/well of biotinylated VEGF A ligand (500 pM). The cells were incubated at 4° C. for another hour followed by the addition of 50 µL/well of AF647-conjugated streptavidin (3 nM). The plate was incubated at 4° C. for 30 min protected from light, washed twice with 200 μL/well of stain buffer, collected by centrifugation, resuspended in running buffer containing Sytox Blue live/dead stain and then read on an Intellicyt iQue Plus flow cytometer. Data was fit to obtain IC₅₀ values. Percent ligand blocking was calculated for each concentration of each test antibody and IC50 values were determined (Table 25).

[3] = target: T3, cynomolgus monkey VEGFR1, over-expressed on HEK293 cells (cynomolgus monkey); assay: flow cytometry, 10 nM antibody, HEK cells over-expressing cyno VEGFR1
T3 construct: whole, on cells; also called HEK/ cyno VEGFR1; cynoVEGFR1
Protocol: Parental CHO-K1 cells, CHO-K1 cells stably expressing human VEGFR1, Ba/F3 parental, and Ba/F3 cells stably expressing murine VEGFR1 were stained for 10 minutes at 4° C. with either no stain, CSFE, CTV, or CTV+CSFE, respectively. Cells were subsequently washed with media containing heat inactivated FBS, collected by centrifugation, combined, resuspended in stain buffer, and plated (95 μL/well; 200,000 of each cell type per well). Antibody samples were added ([…]) to a final concentration of 10 nM and incubated for 60 min at 4° C. protected from light. Cells were washed twice with 150 μL/well stain buffer. AlexaFluor647-conjugated anti-human IgG1 secondary antibody was added (100 μL/well) and incubated for 30 minutes at 4° C. protected from light. Cells were washed twice with 150 μL of stain buffer, ultimately resuspended in 30 μL of running buffer and read on an iQue flow cytometer. This single concentration assay was used as a quick confirmation of binding to human and mouse VEGFR1 on cells. A similar assay was performed to confirm binding of candidate antibodies to HEK293 cells stably over-expressing cyno VEGFR1 at a single concentration of 10 nM.

[4] = target: T4, Recombinant human VEGFR1-Fc (R&D Systems) (human, UniProt P17948 27-687, limits assumed); assay: MSD ECL competition on plate-bound human VEGFR1-Fc; competitor biotin human VEGFA165 (0.2 nM)
T4 construct: bought; not shown: Fc part of the bought fusion, not described
How it was run: (§1)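 Half-log antibody dilutions were pre-incubated for 30 minutes with VEGFR1 (human or mouse Fc fusion, or His-tagged cyno; 0.5 ug/ml) that had been captured for 1 hour at room temperature on blocked MSD 384 plates coated with Protein A/G or anti-His mAb. Biotinylated VEGFA (0.2 nM) or PlGF (2 nM) was then added and bound ligand was read with Sulfo-tagged streptavidin on an MSD SECTOR S 600 imager. IC50 and maximal percent inhibition were calculated from the electro-chemiluminescence readings.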

His tagged cyno VEGFR1 = His tagged cyno VEGFR1 (cynomolgus monkey, UniProt A0A2K5VAF2 27-758); assay: MSD ECL competition on plate-bound His-tagged cyno VEGFR1; competitor biotin human PlGF (2 nM)
How it was run: as §1

[5] = target: T5, Recombinant mouse VEGFR1-Fc (R&D Systems) (mouse, UniProt P35969 27-759, limits assumed); assay: MSD ECL competition on plate-bound mouse VEGFR1-Fc; competitor biotin mouse VEGFA164 (0.2 nM)
T5 construct: bought; not shown: Fc part of the bought fusion, not described
T5 sequence (looked up): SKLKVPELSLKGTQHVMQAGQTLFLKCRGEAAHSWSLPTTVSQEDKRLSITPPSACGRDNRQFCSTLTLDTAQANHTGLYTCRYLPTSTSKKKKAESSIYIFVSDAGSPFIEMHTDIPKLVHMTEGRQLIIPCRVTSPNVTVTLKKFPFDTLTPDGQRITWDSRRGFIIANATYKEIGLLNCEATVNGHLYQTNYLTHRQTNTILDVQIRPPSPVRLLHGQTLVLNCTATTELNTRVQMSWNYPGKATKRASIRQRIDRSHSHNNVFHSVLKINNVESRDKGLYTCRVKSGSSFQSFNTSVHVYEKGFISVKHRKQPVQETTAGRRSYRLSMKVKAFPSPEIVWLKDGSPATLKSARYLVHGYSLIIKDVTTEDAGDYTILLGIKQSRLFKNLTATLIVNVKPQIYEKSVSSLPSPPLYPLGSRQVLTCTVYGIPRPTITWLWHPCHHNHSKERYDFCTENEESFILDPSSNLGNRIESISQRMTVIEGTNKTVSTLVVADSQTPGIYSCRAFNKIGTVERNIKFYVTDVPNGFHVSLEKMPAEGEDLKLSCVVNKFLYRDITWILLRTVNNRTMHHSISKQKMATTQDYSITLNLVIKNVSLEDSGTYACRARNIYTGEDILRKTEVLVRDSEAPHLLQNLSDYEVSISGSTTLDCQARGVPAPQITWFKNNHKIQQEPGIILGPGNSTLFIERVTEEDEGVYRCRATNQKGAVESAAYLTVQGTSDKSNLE
How it was run: as §1

[6] = target: T4, Recombinant human VEGFR1-Fc (R&D …); assay: MSD ECL competition on plate-bound human VEGFR1-Fc; competitor biotin PlGF (2 nM)
How it was run: as §1

[7] = target: T1, human VEGFR2, over-expressed on HEK293 …; assay: FACS cell binding (MFI) on HEK cells over-expressing human VEGFR2; expanded clone supernatant per paragraph 492, concentration not given
How it was run: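 Binding was assessed by flow cytometry as mean fluorescence intensity, using culture supernatants of chicken-derived antibody clones expressed as scFv-Fc (human IgG1). The clones were produced by transient transfection and expanded to 6-well plates (2 mL). Receptor over-expressing cells were HEK cells for mouse VEGFR1 and human VEGFR2, and K562 cells for human VEGFR3.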

T1 sequence (P35968 20-1356): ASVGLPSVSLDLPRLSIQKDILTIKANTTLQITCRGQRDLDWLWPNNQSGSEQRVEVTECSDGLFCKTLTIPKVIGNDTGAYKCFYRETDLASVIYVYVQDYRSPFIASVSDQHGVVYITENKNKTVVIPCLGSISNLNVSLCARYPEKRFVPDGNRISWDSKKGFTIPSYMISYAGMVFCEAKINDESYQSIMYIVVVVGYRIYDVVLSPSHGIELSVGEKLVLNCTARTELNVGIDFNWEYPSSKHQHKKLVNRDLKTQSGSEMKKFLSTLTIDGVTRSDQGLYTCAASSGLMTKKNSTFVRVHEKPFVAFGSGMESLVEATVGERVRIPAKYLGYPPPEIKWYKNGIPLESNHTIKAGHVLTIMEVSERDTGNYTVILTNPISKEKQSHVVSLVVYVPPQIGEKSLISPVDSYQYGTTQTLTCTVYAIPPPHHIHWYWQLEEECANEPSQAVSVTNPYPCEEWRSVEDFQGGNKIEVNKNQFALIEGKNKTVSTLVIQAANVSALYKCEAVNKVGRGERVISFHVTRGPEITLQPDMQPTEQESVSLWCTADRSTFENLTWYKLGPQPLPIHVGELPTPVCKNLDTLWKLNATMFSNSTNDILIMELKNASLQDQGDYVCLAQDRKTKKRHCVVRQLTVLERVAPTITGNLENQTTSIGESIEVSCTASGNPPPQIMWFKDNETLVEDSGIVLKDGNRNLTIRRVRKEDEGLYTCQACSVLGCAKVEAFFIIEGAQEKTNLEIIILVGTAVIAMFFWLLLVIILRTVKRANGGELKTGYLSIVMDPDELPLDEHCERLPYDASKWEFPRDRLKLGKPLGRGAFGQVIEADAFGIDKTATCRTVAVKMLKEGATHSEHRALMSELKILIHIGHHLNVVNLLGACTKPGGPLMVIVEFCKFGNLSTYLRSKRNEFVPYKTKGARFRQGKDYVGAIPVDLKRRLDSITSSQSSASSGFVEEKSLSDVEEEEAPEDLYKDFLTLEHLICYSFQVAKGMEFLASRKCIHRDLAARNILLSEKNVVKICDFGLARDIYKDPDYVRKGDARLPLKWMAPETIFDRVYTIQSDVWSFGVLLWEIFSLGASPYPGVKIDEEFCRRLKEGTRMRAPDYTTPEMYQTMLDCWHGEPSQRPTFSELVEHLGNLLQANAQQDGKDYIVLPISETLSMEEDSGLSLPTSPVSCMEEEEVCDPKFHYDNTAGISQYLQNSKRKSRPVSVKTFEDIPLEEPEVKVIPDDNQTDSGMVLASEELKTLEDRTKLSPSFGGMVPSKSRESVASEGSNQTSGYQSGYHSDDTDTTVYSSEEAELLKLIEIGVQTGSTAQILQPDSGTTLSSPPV
T4 sequence (P17948 27-687 limits assumed): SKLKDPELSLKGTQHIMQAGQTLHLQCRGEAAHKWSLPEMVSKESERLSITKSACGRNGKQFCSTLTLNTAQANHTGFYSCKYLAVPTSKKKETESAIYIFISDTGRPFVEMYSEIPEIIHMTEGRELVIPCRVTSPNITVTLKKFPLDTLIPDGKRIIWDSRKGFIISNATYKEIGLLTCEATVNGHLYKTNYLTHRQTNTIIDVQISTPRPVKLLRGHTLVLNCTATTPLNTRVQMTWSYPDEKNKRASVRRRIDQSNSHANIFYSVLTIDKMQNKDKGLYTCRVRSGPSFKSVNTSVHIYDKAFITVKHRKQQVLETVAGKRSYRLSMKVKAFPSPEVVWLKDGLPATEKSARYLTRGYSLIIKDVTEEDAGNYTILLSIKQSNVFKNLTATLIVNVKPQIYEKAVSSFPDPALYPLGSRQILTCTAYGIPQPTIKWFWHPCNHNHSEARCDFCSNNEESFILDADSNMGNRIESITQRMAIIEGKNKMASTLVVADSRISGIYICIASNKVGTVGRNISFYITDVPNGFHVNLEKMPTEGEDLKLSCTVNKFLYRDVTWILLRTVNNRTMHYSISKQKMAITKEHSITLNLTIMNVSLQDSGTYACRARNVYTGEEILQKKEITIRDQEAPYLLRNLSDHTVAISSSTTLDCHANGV
T2 sequence (P17948 27-1338 limits assumed): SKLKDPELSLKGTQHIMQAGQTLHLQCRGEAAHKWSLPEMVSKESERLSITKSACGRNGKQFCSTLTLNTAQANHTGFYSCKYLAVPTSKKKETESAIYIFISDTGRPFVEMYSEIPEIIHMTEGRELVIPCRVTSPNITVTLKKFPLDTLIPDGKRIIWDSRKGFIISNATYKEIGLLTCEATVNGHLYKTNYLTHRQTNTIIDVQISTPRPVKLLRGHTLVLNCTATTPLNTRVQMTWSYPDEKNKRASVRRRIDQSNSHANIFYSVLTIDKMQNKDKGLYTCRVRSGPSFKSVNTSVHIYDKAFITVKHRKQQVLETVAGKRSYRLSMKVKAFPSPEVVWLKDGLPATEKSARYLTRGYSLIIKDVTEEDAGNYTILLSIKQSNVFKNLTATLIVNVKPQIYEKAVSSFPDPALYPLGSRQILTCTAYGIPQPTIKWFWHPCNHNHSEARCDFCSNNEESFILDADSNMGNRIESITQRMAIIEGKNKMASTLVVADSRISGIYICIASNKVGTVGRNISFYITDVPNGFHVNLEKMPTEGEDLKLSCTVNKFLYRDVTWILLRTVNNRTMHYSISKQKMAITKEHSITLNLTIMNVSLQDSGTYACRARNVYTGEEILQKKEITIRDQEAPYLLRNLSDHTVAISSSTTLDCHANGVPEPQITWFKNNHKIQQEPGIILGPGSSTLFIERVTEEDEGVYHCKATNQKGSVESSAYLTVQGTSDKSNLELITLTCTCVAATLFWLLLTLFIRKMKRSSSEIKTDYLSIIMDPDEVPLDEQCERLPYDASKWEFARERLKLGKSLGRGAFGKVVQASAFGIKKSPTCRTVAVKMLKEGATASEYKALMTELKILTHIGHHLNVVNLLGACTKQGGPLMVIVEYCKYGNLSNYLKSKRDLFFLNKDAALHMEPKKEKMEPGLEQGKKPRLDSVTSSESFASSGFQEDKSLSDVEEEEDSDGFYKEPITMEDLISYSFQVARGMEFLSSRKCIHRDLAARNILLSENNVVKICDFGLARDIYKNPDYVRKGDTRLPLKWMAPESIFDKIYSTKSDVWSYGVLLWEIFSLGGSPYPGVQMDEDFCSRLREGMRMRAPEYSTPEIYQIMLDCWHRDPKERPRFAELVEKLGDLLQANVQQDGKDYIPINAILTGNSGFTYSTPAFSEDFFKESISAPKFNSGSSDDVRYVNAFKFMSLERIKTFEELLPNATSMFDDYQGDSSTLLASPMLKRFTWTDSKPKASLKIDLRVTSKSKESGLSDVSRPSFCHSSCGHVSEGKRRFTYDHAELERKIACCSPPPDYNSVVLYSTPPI

B1: VGFB71 (antibody, human IgG1, lambda, L234A L235A, V domains shown)
VH: EVQLLESGGGLVQPGGSLRLSCEASGFIFRDYNMNWVRQAPGKGLEWVSIITNDGSSTAYSDSVKGRFTISRDNSKNSLYLQMNSLRAEDTAIYYCVKVYYGMDDWGQGTTVTVSS
VL: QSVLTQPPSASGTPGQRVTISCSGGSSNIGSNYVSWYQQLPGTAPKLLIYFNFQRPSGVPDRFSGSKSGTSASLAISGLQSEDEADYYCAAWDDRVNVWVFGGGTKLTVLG
notes: human IgG1 (L234A/L235A/D265S)
Geomean over-expressing/Geomean parental (Fold Signal/Background) [1]: 1.27 fold
IC50 [2]: 0.0795 nM
Geomean over-expressing/Geomean parental (Fold Signal/Background) [3]: 3.8 fold

B2: VGFB54 (antibody, human IgG1, lambda, L234A L235A, V domains shown)
VH: EVQLLESGGGSVQPGGSLRLSCTASGFNFEDYGMNWVRQAPGKGLDWVSSINRNGDISTYHVDSVKGRFTISRDNSKNTLYLQMNSLRAEDTAIYYCTKNHDYHGMDVWGQGTTVTVSS
VL: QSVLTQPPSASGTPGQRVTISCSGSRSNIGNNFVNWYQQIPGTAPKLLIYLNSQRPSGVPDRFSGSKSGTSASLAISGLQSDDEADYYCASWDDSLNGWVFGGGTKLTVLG
notes: human IgG1 (L234A/L235A/D265S), lambda, 2H:2L; from OmniChicken
Geomean over-expressing/Geomean parental (Fold Signal/Background) [1]: 1.52 fold
IC50 [2]: 0.0727 nM
IC50 [4]: 0.141 nM
Max % Inh. [4]: 99.9%
Geomean over-expressing/Geomean parental (Fold Signal/Background) [3]: 4.4 fold
IC50 (His tagged cyno VEGFR1): 0.078 nM
Max % Inh. (His tagged cyno VEGFR1): 100%
IC50 [5]: 0.026 nM
Max % Inh. [5]: 100%
IC50 [6]: 0.159 nM
Max % Inh. [6]: 100%
binding result [7]: no binding

B3: VGFB78 (antibody, human IgG1, lambda, L234A L235A, V domains shown)
VH: EVQLLESGGGLVQPGGSLRLSCAASSFTFYNYDMTWVRQAPGKGLEWVAGIGTSGTDMYYADSVKGRFTISRDNSKNTLYLQMNSLRAEDTAIYYCAKDYYYYGMDVWGLGTTVTVSS
VL: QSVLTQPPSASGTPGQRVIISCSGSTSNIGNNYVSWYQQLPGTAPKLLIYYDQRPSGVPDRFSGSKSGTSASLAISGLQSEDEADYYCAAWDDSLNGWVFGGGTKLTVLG
notes: as for B1
Geomean over-expressing/Geomean parental (Fold Signal/Background) [1]: 1.75 fold
IC50 [2]: 0.683 nM
IC50 [4]: 0.252 nM
Max % Inh. [4]: 99.9%
Geomean over-expressing/Geomean parental (Fold Signal/Background) [3]: 4.46 fold
IC50 (His tagged cyno VEGFR1): 0.177 nM
Max % Inh. (His tagged cyno VEGFR1): 100%
IC50 [5]: 0.183 nM
Max % Inh. [5]: 101%
IC50 [6]: 0.335 nM
Max % Inh. [6]: 100%
binding result [7]: no binding

B4: VGFB82 (antibody, human IgG1, lambda, L234A L235A, V domains shown)
VH: EVQLLESGGGLVQPGGSLRLSCEASGFDFSTYAMNWVRQAPGKGLEWVATINSEGTITSHAPAVKGRFTISRDNSKNTAYVQMNSLRAEDSAVYYCSSTTGTTHGMDVWGRGTTVTVSS
VL: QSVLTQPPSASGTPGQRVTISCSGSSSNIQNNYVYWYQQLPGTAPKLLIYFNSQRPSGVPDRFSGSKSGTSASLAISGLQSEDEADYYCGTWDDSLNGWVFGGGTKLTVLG
notes: as for B1
Geomean over-expressing/Geomean parental (Fold Signal/Background) [1]: 1.34 fold
IC50 [2]: 0.198 nM
IC50 [4]: 0.152 nM
Max % Inh. [4]: 99.9%
Geomean over-expressing/Geomean parental (Fold Signal/Background) [3]: 3.3 fold
IC50 (His tagged cyno VEGFR1): 0.091 nM
Max % Inh. (His tagged cyno VEGFR1): 100%
IC50 [5]: 0.04 nM
Max % Inh. [5]: 99.8%
IC50 [6]: 0.183 nM
Max % Inh. [6]: 100%
binding result [7]: no binding
